Measurements from PMC6849236.

Key:
[1] = target: CBM3-CtCoh-CcsCoh-RfCoh synthetic mini-scaffoldin (C. thermocellum ATCC 27405 | C. cellulovorans ATCC 35296 | R. flavefaciens)
[2] = target: CBM3-CtCoh-CcsCoh-RfCoh synthetic mini-scaffoldin (C. thermocellum ATCC 27405 | C. cellulovorans ATCC 35296 | R. flavefaciens); assay: pull-down; RAC pull-down: cell lysate supernatants of dockerin-containing enzymes (in slight excess) mixed with 0.5 mL cell lysate supernatant of CBM3-Scaf3, 2 mg RAC added, room temperature 5 min; RAC pellet washed three times in 100 mM HEPES pH 7.5, 50 mM NaCl, 1 mM CaCl2; 12% SDS-PAGE, band intensities

Sequence of CDP-CtDoc (A3DH67 whole entry): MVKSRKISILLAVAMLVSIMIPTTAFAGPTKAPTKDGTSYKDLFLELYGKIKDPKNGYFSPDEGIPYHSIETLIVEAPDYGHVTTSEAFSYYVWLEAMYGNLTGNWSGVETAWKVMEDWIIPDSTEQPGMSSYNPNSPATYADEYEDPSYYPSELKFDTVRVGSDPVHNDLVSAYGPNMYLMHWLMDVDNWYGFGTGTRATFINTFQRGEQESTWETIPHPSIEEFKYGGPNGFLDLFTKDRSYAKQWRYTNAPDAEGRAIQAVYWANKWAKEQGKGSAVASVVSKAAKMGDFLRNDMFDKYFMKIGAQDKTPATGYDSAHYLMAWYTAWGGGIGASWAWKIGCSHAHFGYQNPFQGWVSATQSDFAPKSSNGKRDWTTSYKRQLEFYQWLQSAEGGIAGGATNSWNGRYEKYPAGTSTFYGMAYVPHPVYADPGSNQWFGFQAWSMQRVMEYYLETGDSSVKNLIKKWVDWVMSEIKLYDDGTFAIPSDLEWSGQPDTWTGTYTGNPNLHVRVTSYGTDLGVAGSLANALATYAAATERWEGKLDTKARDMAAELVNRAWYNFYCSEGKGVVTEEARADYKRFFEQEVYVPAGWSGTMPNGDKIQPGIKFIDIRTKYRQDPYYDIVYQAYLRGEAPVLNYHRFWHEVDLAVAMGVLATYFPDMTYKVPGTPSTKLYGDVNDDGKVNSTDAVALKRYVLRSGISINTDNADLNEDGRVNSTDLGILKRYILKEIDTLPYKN

specific activity of RAC immobilized CBM3-Scaf3/CDP-CtDoc; 0.5 mL cell lysate supernatant of CBM3-Scaf3 mixed with different volumes of CDP-CtDoc supernatant, highest at 1 mL, no increase with excess [1] [U mL^−1] | stoichiometry N [2] | specific activity of RAC immobilized CBM3-Scaf3/CDP-RfDoc; 0.5 mL cell lysate supernatant of CBM3-Scaf3 mixed with CDP-RfDoc supernatant, highest at 2 mL [1] [U mL^−1] | specific activity of RAC immobilized CBM3-Scaf3/PGM-CcsDoc; 0.5 mL cell lysate supernatant of CBM3-Scaf3 mixed with PGM-CcsDoc supernatant, highest at 2 mL [1] [U mL^−1] | specific activity of RAC immobilized CBM3-Scaf3/PGM-RfDoc; 0.5 mL cell lysate supernatant of CBM3-Scaf3 mixed with PGM-RfDoc supernatant, highest at 2 mL [1] [U mL^−1] | Substance
0.72 | 1 | – | – | – | CDP-CtDoc (from UniProt A3DH67 673-741) (enzyme)
– | 1 | 0.71 | – | – | CDP-RfDoc (from UniProt Q9AE53 787-879) (enzyme)
– | 1 | – | 23 | – | PGM-CcsDoc (enzyme)
– | 1 | – | – | 22.4 | PGM-RfDoc (from UniProt Q9AE53 787-879) (enzyme)
